The values that follow come from patent US20240383995A1 (SHANGHAI HENLIUS BIOTECH, published 2024).

The assay deals with T1, Human OX40 expressed on transfected Jurkat or CHO cells (human, UniProt P43489 29-277).
T1 construct: also called human OX40/Jurkat; human OX40/CHO
T1 sequence: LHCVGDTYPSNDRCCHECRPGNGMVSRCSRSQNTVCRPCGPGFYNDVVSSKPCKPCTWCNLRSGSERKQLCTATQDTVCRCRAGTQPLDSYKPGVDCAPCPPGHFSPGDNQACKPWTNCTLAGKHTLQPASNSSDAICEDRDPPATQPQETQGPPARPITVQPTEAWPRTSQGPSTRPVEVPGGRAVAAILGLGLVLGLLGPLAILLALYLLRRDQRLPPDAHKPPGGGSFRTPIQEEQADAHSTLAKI
In words: flow cytometry on human OX40-transfected Jurkat cells, Alexa Fluor488 anti-human IgG Fc, Geo MFI. As for the experimental part: FIGS. 2A-2C depict whole cell binding of humanized anti-OX40 antibodies to human or cynomolgus OX40 assessed by flow cytometry. Human OX40-expressing Jurkat cells (FIG. 2A), human OX40-expressing CHO cells (FIG. 2B) and cynomolgus OX40-expressing CHO cells (FIG. 2C) were incubated with indicated anti-OX40 bivalent antibodies, and then stained with Alexa Fluor488 conjugated anti-human IgG Fc antibody. The fluorescence intensity was measured by flow cytometry.
Bivalent antibodies of these 15 clones were made by fusing VHH to human IgG1 Fc, expressed in ExpiCHO cells, and purified by Protein A affinity column. Binding affinity of the VHH-Fc bivalent antibodies to human or cynomolgus OX40 was evaluated by flow cytometry using Jurkat cells transfected with human OX40 (human OX40/Jurkat) (FIG. 2A), CHO cells transfected with human OX40 (human OX40/CHO) (FIG. 2B), and CHO cells transfected with cynomolgus OX40 (cyno OX40/CHO) (FIG. 2C). These antibodies with indicated concentrations were incubated with the cells in FACS buffer (3% FBS in PBS) on ice for 30 min, and the free antibodies were washed out with FACS buffer. […] Binding affinity was calculated using GraphPad Prism three parameter logistic equation. […]

B1: 1B3 VHH-Fc bivalent antibody (antibody, human IgG1, V domains shown)
VH: EVQLVESGGGLVQPGGSLRLSCAASGPLGMPSIAWFRQAPGKGLEFVSGIAWSTGDTYYADSVKGRFTISRDNSKNTLYLQMNSLRAEDTAVYYCAADTQVHYMGRHDIRDREEYDYWGQGTLVTVSS
notes: no light chain; also called 1B3-bivalent
Take B1: the “EC50 (read off the curve)” value was ~3 nM.
